{P} = phosphate
Key:
K562 mock cells = assay: MTT cytotoxicity assay; assay type: cell-based, human; conditions: MMC formulations
Method: K562 cells (either K562 mock cells or K562 Mac-1 cells, stably transfected with Mac-1 integrin) were grown in 1×RPMI supplemented with 10% FBS. Exponentially growing cells were seeded at 2.5×10^5/ml in 24-well plates and either left untreated or treated with graded dosages of free mitomycin (MMC) or equivalent doses of MMC formulated in liposomes. The treatment media was selected from the following MMC formulations: (i) the test system, MMC-loaded tHA-CBRM1/29, (ii) MMC-loaded ULV-HA, (iii) free MMC, (iv) free MMC dissolved in a suspension of empty tHA-CBRM1/29 and (v) free MMC dissolved in a suspension of empty ULV-HA. In addition, there were 3 drug-free controls, consisting of: (vi) no addition (i.e., only the serum-supplemented growth medium), (vii) empty tHA-CBRM1/29 and (viii) empty ULV. In all formulations, the solvent was serum-supplemented cell growth medium. Cells were washed twice with Hepes-buffered saline (HBS) then re-incubated with drug-free media for additional 48 hours. Cells were spun down and re-suspended in 0.5 ml of MTT containing medium (0.5 mg/ml), and incubated at 37° C. for 1 h. […] After 5 min at room temperature, samples were spun down and 250-μl aliquots were used for absorbance measurements. Cell viability was measured as the difference in the absorbance 550 and 620 nm. […] Data are expressed as a percent of the control healthy growing cells.

[1] = target: integrin Mac-1 (αMβ2) (human) (UniProt P11215); assay: flow cytometry on K562 cells expressing Mac-1; free antibody before lyophilization
[2] = target: integrin Mac-1 (αMβ2) (human) (UniProt P11215); assay: flow cytometry on K562 cells expressing Mac-1; free antibody after lyophilization and reconstitution
CD4 = CD4 silencing in human primary CD4+ cells by flow cytometry; assay type: cell-based; conditions: formulated in immunomicelles, 30 pmol-1000 pmol
Method: Human neutrophils or lymphocytes were isolated from freshly drawn blood as described (Carman et al. J. Immunology, 171 (2003) 6135-6144). CD4 blasts were generated by isolating CD4+ T cells from peripheral blood lymphocytes of normal donors by immunomagnetic beads (Miltenyi Biotech) as previously reported (Novina et al. Nature Med. 2002; 8(7): 681-6) and culturing them in RPMI 1640 containing 10% FCS for 3 days in the presence of 4 μg/mL phytohemagglutinin (PHA), then expend the cells with the same media (without PHA) but with IL-2 at 10 ng/mL for 3 more days.
siRNA transfections were preformed with different formulations of siRNA targeted against human CD4, siRNA-luciferase, or siRNA-cy3. As a positive control we used Fugene 6 and ExGen 500 (PEI) transfection reagents. Cells were seeded in 24 or 96 well plates at a density of 5000−2×10^5 cells/well. […]

[3] = target: integrin Mac-1 (αMβ2) (human) (UniProt P11215); assay: flow cytometry on K562 cells expressing Mac-1; carrier before lyophilization
[4] = target: integrin Mac-1 (αMβ2) (human) (UniProt P11215); assay: flow cytometry on K562 cells expressing Mac-1; carrier after lyophilization and reconstitution (no cryoprotectant)
[5] = target: integrin Mac-1 (αMβ2) (human) (UniProt P11215); assay: flow cytometry on K562 cells expressing Mac-1; carrier after lyophilization and reconstitution
[6] = target: integrin Mac-1 (αMβ2) (human) (UniProt P11215); assay: cell-based or functional assay

Compound: CO[C@@]12[C@H](COC(N)=O)C3=C(C(=O)C(C)=C(N)C3=O)N1C[C@@H]1N[C@@H]12 [free MMC, mitomycin C]
- cell survival (K562 mock cells): no significant changes in the cell survival

Compound: CBRM1/29-cy3 (antibody)
- MFI [1]: 82
- MFI [2]: 73

Compound: CD4-siRNA: siRNA targeted against human CD4, sense 5′-P.GAUCAAGAGACUCCUCAGUUU-3′, antisense 5′-P.ACUGAGGAGUCUCUUGAUCUU-3′ (RNA, 5' {P}, backbone not given here)
- plateau of CD4 silencing dose response curve (CD4): 500 pmol

Compound: ULV-CBRM1/29-cy3 (antibody)
- mean fluorescence intensity [3]: 175
- mean fluorescence intensity [4]: 5.6

Compound: tHA-CBRM1/29-cy3 (antibody)
- MFI [5]: 172
- MFI [3]: 161
- IC50 (MTT cytotoxicity assay, MMC entrapped in the carrier, K562 cells expressing Mac-1) [6]: 1.75 µM
- fold difference of IC50 against ULV-HA (no antibody), MTT cytotoxicity assay on K562 cells expressing Mac-1 [6]: 100 fold

Reference: patent publication US20090232730A1, “METHOD OF PRODUCING IMMUNOLIPOSOMES AND COMPOSITIONS THEREOF” (IMMUNE DISEASE INSTITUTE, INC., priority 2006, published 2009)
